Reference: PMC6322573, “Profiling of advanced glycation end products uncovers abiotic stress-specific target proteins in Arabidopsis” (Journal of Experimental Botany, 2018)

How the values were obtained:
purified protein [1] = substrate: O=CC(O)COP(=O)(O)O; assay: purified protein; details: non-glycated enzyme, 10 mM NAD+, 3 mM DTT, 10 mM sodium phosphate pH 8.5, 100 mM NaCl, 25 °C
purified protein [2] = substrate: O=CC(O)COP(=O)(O)O; assay: purified protein; type: biochemical, Arabidopsis thaliana; details: non-glycated enzyme, 0.1 mM NADH, alpha-glycerophosphate dehydrogenase 5 U, 10 mM sodium phosphate pH 7.0, 100 mM NaCl, 25 °C

| Protein | Km (purified protein [1]) | kcat (purified protein [1]) [s⁻¹] | kcat/Km (purified protein [1]) [M⁻¹ s⁻¹] | Km (purified protein [2]) | kcat (purified protein [2]) [s⁻¹] | kcat/Km (purified protein [2]) [M⁻¹ s⁻¹] |
| --- | --- | --- | --- | --- | --- | --- |
| GAPC1 (cytosolic glyceraldehyde-3-phosphate dehydrogenase C1) (Arabidopsis thaliana) (protein) MADKKIRIGINGFGRIGRLVARVVLQRDDVELVAVNDPFITTEYMTYMFKYDSVHGQWKHNELKIKDEKTLLFGEKPVTVFGIRNPEDIPWAEAGADYVVESTGVFTDKDKAAAHLKGGAKKVVISAPSKDAPMFVVGVNEHEYKSDLDIVSNASCTTNCLAPLAKVINDRFGIVEGLMTTVHSITATQKTVDGPSMKDWRGGRAASFNIIPSSTGAAKAVGKVLPALNGKLTGMSFRVPTVDVSVVDLTVRLEKAATYDEIKKAIKEESEGKLKGILGYTEDDVVSTDFVGDNRSSIFDAKAGIALSDKFVKLVSWYDNEWGYSSRVVDLIVHMSKA | 0.77 (±0.21) mM | 76.4 | 99000 | – | – | – |
| TPI (chloroplastic triosephosphate isomerase) (Arabidopsis thaliana) (protein, measured mass 29273 Da; homodimer) MAGSGKFFVGGNWKCNGTKDSIAKLISDLNSATLEADVDVVVSPPFVYIDQVKSSLTDRIDISGQNSWVGKGGAFTGEISVEQLKDLGCKWVILGHSERRHVIGEKDEFIGKKAAYALSEGLGVIACIGEKLEEREAGKTFDVCFAQLKAFADAVPSWDNIVVAYEPVWAIGTGKVASPQQAQEVHVAVRGWLKKNVSEEVASKTRIIYGGSVNGGNSAELAKEEDIDGFLVGGASLKGPEFATIVNSVTSKKVAA | – | – | – | 1.21 (±0.39) mM | 18.4 ± 2.25 | 15000 |
